Results reported in US20090220470A1.

Assays:
[1] = biological target: Mono-ubiquitin (Sigma Aldrich) (UniProt P0CG48); experiment: SPR (BiaCore 3000), captured via GST on anti-GST chip, mono-ubiquitin injected, steady state
[2] = biological target: Mono-ubiquitin (Sigma Aldrich) (UniProt P0CG48); experiment: SPR (Biacore), GST fusion captured on anti-GST antibody chip (150-220 RU), mono-ubiquitin injected in a 2-fold dilution series, steady-state fit
[3] = biological target: K48 tetra-ubiquitin (Boston Biochem) (UniProt P0CG48); experiment: SPR (BiaCore 3000), GST-TUBE captured on anti-GST chip at low density, tetra-ubiquitin injected, steady-state fit
[4] = biological target: K63 tetra-ubiquitin (Boston Biochem) (UniProt P0CG48); experiment: as above
[5] = biological target: K48 tetra-ubiquitin (Boston Biochem) (UniProt P0CG48); experiment: SPR (BiaCore 3000), dissociation followed over two hours (data not shown)
[6] = biological target: K63 tetra-ubiquitin (Boston Biochem) (UniProt P0CG48); experiment: as above
[7] = biological target: K48 tetra-ubiquitin (Boston Biochem) (UniProt P0CG48); experiment: ratio of the literature Kd of the single UBA (Raasi et al.) to the SPR Kd of the TUBE
[8] = biological target: K63 tetra-ubiquitin (Boston Biochem) (UniProt P0CG48); experiment: as above
[9] = biological target: poly-ubiquitylated proteins (of cell lysates); experiment: cell-based or functional assay
[10] = biological target: K48 tetra-ubiquitin (Boston Biochem) (UniProt P0CG48); experiment: SPR (BiaCore 3000), dissociation phase fitted with a double exponential, first (rapid) phase
[11] = biological target: K63 tetra-ubiquitin (Boston Biochem) (UniProt P0CG48); experiment: as above
[12] = biological target: K48 tetra-ubiquitin (Boston Biochem) (UniProt P0CG48); experiment: SPR (BiaCore 3000), dissociation phase fitted with a double exponential, second (slow) phase
[13] = biological target: K63 tetra-ubiquitin (Boston Biochem) (UniProt P0CG48); experiment: as above
[14] = biological target: Mono-ubiquitin (Sigma Aldrich) (UniProt P0CG48); experiment: SPR (BIACORE 3000), GST-p62 UBA polypeptide captured on anti-GST chip, ubiquitin injected
[15] = biological target: Mono-ubiquitin (Sigma Aldrich) (UniProt P0CG48); experiment: SPR (BIACORE 3000), GST-p62 UBA polypeptide captured on anti-GST antibody chip, ubiquitin injected

Chain of Ubiquilin1 TUBE (TUBE comprising 4 ubiquilin-1 UBA domains, GST fusion with His6 and SV5 tags) (designed binder) (chain, part): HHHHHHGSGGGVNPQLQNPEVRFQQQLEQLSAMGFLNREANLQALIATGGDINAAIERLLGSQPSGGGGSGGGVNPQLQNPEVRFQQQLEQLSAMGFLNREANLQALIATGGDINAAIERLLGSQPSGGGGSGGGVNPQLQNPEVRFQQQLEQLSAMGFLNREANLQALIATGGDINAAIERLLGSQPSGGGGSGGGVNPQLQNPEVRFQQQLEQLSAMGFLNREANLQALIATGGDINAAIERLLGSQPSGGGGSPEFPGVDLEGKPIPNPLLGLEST
Chain of hHR23A TUBE (TUBE comprising 4 hHR23a UBA-1 domains, GST fusion with His6 and SV5 tags) (designed binder) (chain, part): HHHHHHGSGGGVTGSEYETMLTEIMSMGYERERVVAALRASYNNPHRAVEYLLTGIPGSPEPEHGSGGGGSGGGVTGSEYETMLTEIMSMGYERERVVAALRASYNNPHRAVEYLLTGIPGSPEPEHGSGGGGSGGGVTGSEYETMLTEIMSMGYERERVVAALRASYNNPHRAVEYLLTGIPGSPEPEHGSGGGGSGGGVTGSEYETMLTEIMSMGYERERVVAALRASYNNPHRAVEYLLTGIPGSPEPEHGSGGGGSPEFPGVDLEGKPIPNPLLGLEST

Row | Substance | binding stoichiometry (molar ratio ubiquitin:TUBE) (ubiquitin per TUBE) [1] | Kd [2] [nM] | Kd [3] [nM] | Kd [4] [nM] | half-life [5] [h] | half-life [6] [h] | Kd(UBA)/Kd(TUBE) [7] [fold] | Kd(UBA)/Kd(TUBE) [8] [fold] | lowest TUBE concentration at which protection from de-ubiquitylation was detectable [9] [µM] | koff [10] [s⁻¹] | t1/2 (first dissociation phase) [10] [s] | koff [11] [s⁻¹] | t1/2 (first dissociation phase) [11] [s] | koff [12] [s⁻¹] | koff [13] [s⁻¹] | fold more binding (against one UBA copy) [14] [fold] | N (stoichiometry of Ubiquitin-UBA interaction) [15]
1 | hHR23A TUBE (TUBE comprising 4 hHR23a UBA-1 domains, GST fusion with His6 and SV5 tags) (designed binder) | 4 | 65800 | 9.35 | 4.88 | > 5 | > 5 | 663 | 943 | 0.17 | 0.03 | 25 | 0.03 | 25 | 0.0004 | 0.0004 |  | 
2 | Ubiquilin1 TUBE (TUBE comprising 4 ubiquilin-1 UBA domains, GST fusion with His6 and SV5 tags) (designed binder) | 4 | 30200 | 14.3 | 0.6 | > 5 | > 5 | 84 | 833 | 0.17 | 0.03 | 25 | 0.03 | 25 | 0.0004 | 0.0004 |  | 
3 | p62×4 (four domains of the p62-UBA fused to GST; TUBE comprising 4 p62 UBA domains) (designed binder) |  |  |  |  |  |  |  |  |  |  |  |  |  |  |  | 6 | 5.8
